Results on eleven molecules are retold here after PMC10578477, “Biochemical and genetic dissection of the RNA-binding surface of the FinO domain of Escherichia coli ProQ”.

Residue numbers refer to the chain shown, from its start. Bounds are passed on as bounds.

Data set [1] concerns the target T1, ProQ NTD R62A R62A (Escherichia coli) (UniProt P45577).
T1 sequence: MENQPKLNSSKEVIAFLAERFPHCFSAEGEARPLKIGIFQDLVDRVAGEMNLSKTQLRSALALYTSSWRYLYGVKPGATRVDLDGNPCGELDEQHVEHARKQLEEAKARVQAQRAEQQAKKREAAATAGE
The data set is described as follows: EMSA. Particulars: EMSA: 25 mM Tris pH 7.5, 150 mM NaCl, 5% glycerol, 1 mM MgCl2, 1 nM 32P-RNA, 30 min RT; microplates pretreated with 0.0025% BSA; 6% gel in 0.5x TBE at 4 C. In general terms: Mobility shift assays separate free from complexed probe on a gel.

The target in data set [2] is T2, ProQ NTD D41A D41A (Escherichia coli) (UniProt P45577).
T2 sequence: T1 sequence with D41A, A62R
The data set is described as follows: EMSA. Particulars: EMSA: 25 mM Tris pH 7.5, 150 mM NaCl, 5% glycerol, 1 mM MgCl2, 1 nM 32P-RNA, 30 min RT; microplates pretreated with 0.0025% BSA; 6% gel in 0.5x TBE at 4 C.

The target in data set [3] is T3, ProQ NTD Y70F Y70F (Escherichia coli) (UniProt P45577).
T3 sequence: T1 sequence with A62R, Y70F
The experiment in a line: EMSA. Particulars: EMSA: 25 mM Tris pH 7.5, 150 mM NaCl, 5% glycerol, 1 mM MgCl2, 1 nM 32P-RNA, 30 min RT; microplates pretreated with 0.0025% BSA; 6% gel in 0.5x TBE at 4 C.

Data set [4] has as its target T4, ProQ NTD R58A R58A (Escherichia coli) (UniProt P45577).
T4 sequence: T1 sequence with R58A, A62R
The experiment in a line: EMSA. Particulars: EMSA: 25 mM Tris pH 7.5, 150 mM NaCl, 5% glycerol, 1 mM MgCl2, 1 nM 32P-RNA, 30 min RT; microplates pretreated with 0.0025% BSA; 6% gel in 0.5x TBE at 4 C.

Data set [5] deals with T5, ProQ NTD K54A K54A (Escherichia coli) (UniProt P45577).
T5 sequence: T1 sequence with K54A, A62R
The data set is described as follows: EMSA. Conditions: EMSA: 25 mM Tris pH 7.5, 150 mM NaCl, 5% glycerol, 1 mM MgCl2, 1 nM 32P-RNA, 30 min RT; microplates pretreated with 0.0025% BSA; 6% gel in 0.5x TBE at 4 C.

Data set [6] deals with T6, ProQ NTD T65A T65A (Escherichia coli) (UniProt P45577).
T6 sequence: T1 sequence with A62R, T65A
The data set is described as follows: EMSA. Particulars: EMSA: 25 mM Tris pH 7.5, 150 mM NaCl, 5% glycerol, 1 mM MgCl2, 1 nM 32P-RNA, 30 min RT; microplates pretreated with 0.0025% BSA; 6% gel in 0.5x TBE at 4 C.

Data set [7] concerns the target T7, ProQ NTD R69A R69A (Escherichia coli) (UniProt P45577).
T7 sequence: T1 sequence with A62R, R69A
The data set is described as follows: EMSA. Conditions: EMSA: 25 mM Tris pH 7.5, 150 mM NaCl, 5% glycerol, 1 mM MgCl2, 1 nM 32P-RNA, 30 min RT; microplates pretreated with 0.0025% BSA; 6% gel in 0.5x TBE at 4 C.

Data set [8] concerns the target T8, ProQ NTD K35A K35A (Escherichia coli) (UniProt P45577).
T8 sequence: T1 sequence with K35A, A62R
The experiment in a line: EMSA. Conditions: EMSA: 25 mM Tris pH 7.5, 150 mM NaCl, 5% glycerol, 1 mM MgCl2, 1 nM 32P-RNA, 30 min RT; microplates pretreated with 0.0025% BSA; 6% gel in 0.5x TBE at 4 C.

Data set [9] has as its target T9, ProQ NTD R32A R32A (Escherichia coli) (UniProt P45577).
T9 sequence: T1 sequence with R32A, A62R
The data set is described as follows: EMSA. Particulars: EMSA: 25 mM Tris pH 7.5, 150 mM NaCl, 5% glycerol, 1 mM MgCl2, 1 nM 32P-RNA, 30 min RT; microplates pretreated with 0.0025% BSA; 6% gel in 0.5x TBE at 4 C.

Data set [10] addresses T10, ProQ NTD K35A (Escherichia coli, UniProt P45577 1-130, K35A).
T10 sequence: T1 sequence with K35A, A62R
The data set is described as follows: EMSA; EMSA: 25 mM Tris pH 7.5, 150 mM NaCl, 5% glycerol, 1 mM MgCl2, 1 nM 32P-RNA, 30 min RT; microplates pretreated with 0.0025% BSA; 6% gel in 0.5x TBE at 4 C. Conditions: protein: recombinant, tags: His6-TEV removed, N-terminal Ser remains, label: 5'-32P.

Data set [11] concerns the target T11, ProQ NTD R69A (Escherichia coli, UniProt P45577 1-130, R69A).
T11 sequence: T1 sequence with A62R, R69A
The data set is described as follows: EMSA; affinity not decreased vs R69A with cspE-3'; EMSA: 25 mM Tris pH 7.5, 150 mM NaCl, 5% glycerol, 1 mM MgCl2, 1 nM 32P-RNA, 30 min RT; microplates pretreated with 0.0025% BSA; 6% gel in 0.5x TBE at 4 C. Particulars: protein: recombinant; tags: His6-TEV removed, N-terminal Ser remains; label: 5'-32P; hairpin with 5' and 3' single-stranded regions.

In data set [12] the target is T10, ProQ NTD K35A. The data set is described as follows: EMSA; EMSA: 25 mM Tris pH 7.5, 150 mM NaCl, 5% glycerol, 1 mM MgCl2, 1 nM 32P-RNA, 30 min RT; microplates pretreated with 0.0025% BSA; 6% gel in 0.5x TBE at 4 C. Particulars: protein: recombinant; tags: His6-TEV removed, N-terminal Ser remains; label: 5'-32P; hairpin, no 5' single strand.
For data set [13], the target named is T11, ProQ NTD R69A. Described as above. Conditions: protein: recombinant; tags: His6-TEV removed, N-terminal Ser remains; label: 5'-32P; hairpin, no 5' single strand.
Data set [14] deals with T10, ProQ NTD K35A. The data set is described as follows: EMSA; max fraction bound similar to WT; EMSA: 25 mM Tris pH 7.5, 150 mM NaCl, 5% glycerol, 1 mM MgCl2, 1 nM 32P-RNA, 30 min RT; microplates pretreated with 0.0025% BSA; 6% gel in 0.5x TBE at 4 C. Conditions: protein: recombinant; tags: His6-TEV removed, N-terminal Ser remains; label: 5'-32P; terminator hairpin, 8 U 3' tail.

Data set [15] has as its target T11, ProQ NTD R69A. The data set is described as follows: EMSA; max fraction bound 88%; EMSA: 25 mM Tris pH 7.5, 150 mM NaCl, 5% glycerol, 1 mM MgCl2, 1 nM 32P-RNA, 30 min RT; microplates pretreated with 0.0025% BSA; 6% gel in 0.5x TBE at 4 C. Conditions: protein: recombinant; tags: His6-TEV removed, N-terminal Ser remains; label: 5'-32P; terminator hairpin, 8 U 3' tail.

The next data set concerns the target T12, ProQ NTD T65A (Escherichia coli, UniProt P45577 1-130, T65A).
T12 sequence: T1 sequence with A62R, T65A
The data set is described as follows: EMSA; EMSA: 25 mM Tris pH 7.5, 150 mM NaCl, 5% glycerol, 1 mM MgCl2, 1 nM 32P-RNA, 30 min RT; microplates pretreated with 0.0025% BSA; 6% gel in 0.5x TBE at 4 C. Conditions: protein: recombinant; tags: His6-TEV removed, N-terminal Ser remains; label: 5'-32P; terminator hairpin, 8 U 3' tail.

A further data set concerns the target T13, ProQ NTD D41A (Escherichia coli, UniProt P45577 1-130, D41A).
T13 sequence: T1 sequence with D41A, A62R
The data set is described as above. Particulars: protein: recombinant; tags: His6-TEV removed, N-terminal Ser remains; label: 5'-32P; terminator hairpin, 8 U 3' tail.

In the next data set the target is T14, ProQ NTD R80K (Escherichia coli, UniProt P45577 1-130, R80K).
T14 sequence: T1 sequence with A62R, R80K
The description is as above. Particulars: protein: recombinant; tags: His6-TEV removed, N-terminal Ser remains; label: 5'-32P; terminator hairpin, 8 U 3' tail.

The target of the next data set is T15, ProQ NTD R80A (Escherichia coli, UniProt P45577 1-130, R80A).
T15 sequence: T1 sequence with A62R, R80A
The data set is described as above. Particulars: protein: recombinant; tags: His6-TEV removed, N-terminal Ser remains; label: 5'-32P; terminator hairpin, 8 U 3' tail.

A further data set concerns the target T16, ProQ NTD R62A (Escherichia coli, UniProt P45577 1-130, R62A).
T16 sequence: T1 sequence
The data set is described as follows: EMSA; max fraction bound just above 40%; EMSA: 25 mM Tris pH 7.5, 150 mM NaCl, 5% glycerol, 1 mM MgCl2, 1 nM 32P-RNA, 30 min RT; microplates pretreated with 0.0025% BSA; 6% gel in 0.5x TBE at 4 C. Conditions: protein: recombinant; tags: His6-TEV removed, N-terminal Ser remains; label: 5'-32P; terminator hairpin, 8 U 3' tail.

The target of data set [16] is T11, ProQ NTD R69A. The experiment in a line: EMSA; EMSA: 25 mM Tris pH 7.5, 150 mM NaCl, 5% glycerol, 1 mM MgCl2, 1 nM 32P-RNA, 30 min RT; microplates pretreated with 0.0025% BSA; 6% gel in 0.5x TBE at 4 C. Conditions: protein: recombinant; tags: His6-TEV removed, N-terminal Ser remains; label: 5'-32P; hairpin, 6 U tail (2 predicted single-stranded).

For the molecule cspE81-3', the binding signal is less than 20 % max bound in data set [1], less than 20 % max bound in data set [3] and 30 % max bound in [5]. In addition, the binding signal (fold weaker Kd than WT) in [2] and in [6] was 2 each time. Also, in data set [4], the Kd (in general, a measure of binding affinity in units of concentration) is greater than 1000 nM.

With SibB-5U, the binding signal in data set [7] is greater than 30 % max bound.

Consider malM-3', for which the binding signal was 70 % max bound in data set [8], 25 % max bound in data set [1], less than 20 % max bound in data set [3] and 30 % max bound in data set [5]. For the same molecule, the binding signal (fold weaker Kd than WT) amounted to 1 in [9], 3 in data set [2] and 2 in data set [6]. The Kd in [4] was greater than 1000 nM.

With gapA-3', the binding signal (fold weaker Kd than WT) in data set [9], in [2] and in data set [6] was 1 throughout. In addition, the binding signal in data set [1] and in data set [5] was less than 20 % max bound throughout. Also, the Kd in data set [4] was greater than 1000 nM.

With RybB, the binding signal in data set [7] is less than 40 % max bound; in data set [5], less than 20 % max bound. Further, the binding signal (fold weaker Kd than WT) worked out at 2 in data set [2] and 1 in data set [6]. In addition, the Kd in data set [4] is greater than 1000 nM.

As for SibA, the binding signal in [1] came out at 25 % max bound. In addition, the figures for the binding signal (fold weaker Kd than WT) in data set [2] and in data set [6] were greater than 5 and 2, respectively. In [4], the Kd was greater than 1000 nM.

Turning to SibB, the Kd in [8] and in [4] was greater than 1000 nM throughout. In addition, the figures for the binding signal (fold weaker Kd than WT) in [9], in data set [2] and in data set [6] were 3, greater than 5 and 4, respectively.

On to GGAAUUCGGAAGGCGCUUAAUCAGCGCCUUUUUUUU (structured_RNA) [cspE-mini], for which, in the data set with ProQ NTD K35A [10] (hairpin with 5' and 3' single-stranded regions), the binding signal is ~2 fold weaker Kd than K35A with cspE-3'. Moreover, the binding result with ProQ NTD R69A [11] is “binds”.

Take GGAAGGCGCUUAAUCAGCGCCUUUUUUUU (structured_RNA) [cspE-mini-5'-blunt]: the binding result in the data set with ProQ NTD K35A [12] and with ProQ NTD R69A [13] was “no binding” in each case.

B1: cspE-3' (structured_RNA)
RNA: GUAAGAUACGUCAGCAAGAAUUCAAAACCCGCUUAAUCAGCGGGUUUUUUUU
For the molecule B1, the binding result is “binds” with ProQ NTD K35A [14], “no binding” with ProQ NTD R80K and “no binding” in the data set with ProQ NTD R80A. Also, in the data set with ProQ NTD R69A [15], the Kd was found to be 20 nM. The binding signal with ProQ NTD T65A is roughly 4 fold weaker Kd than WT; with ProQ NTD D41A, roughly 3 fold weaker Kd than WT; in the data set with ProQ NTD R62A, roughly 4 fold weaker Kd than WT.

For GGAAUUCGGAAGGCGCUUAAUCAGCGCCUUUUUU (structured_RNA) [cspE-mini-3'-6U], the binding signal with ProQ NTD K35A [10] (hairpin, 6 U tail (2 predicted single-stranded)) is ~1.4 fold weaker Kd than K35A with cspE-mini; in the data set with ProQ NTD R69A [16] it was ~2.4 fold weaker Kd than R69A with cspE-mini.
